Measured values reported in US12630618 (GEORGIA TECH RESEARCH, dated 2026).

Target: T1, human myocilin OLF (hMyoc-OLF), cleaved from its fusion tag (human, UniProt Q99972 244-503, limits assumed)
T1 construct: In Western blots the protein is denatured; also called hOLF; cleaved human myocilin OLF
T1 sequence: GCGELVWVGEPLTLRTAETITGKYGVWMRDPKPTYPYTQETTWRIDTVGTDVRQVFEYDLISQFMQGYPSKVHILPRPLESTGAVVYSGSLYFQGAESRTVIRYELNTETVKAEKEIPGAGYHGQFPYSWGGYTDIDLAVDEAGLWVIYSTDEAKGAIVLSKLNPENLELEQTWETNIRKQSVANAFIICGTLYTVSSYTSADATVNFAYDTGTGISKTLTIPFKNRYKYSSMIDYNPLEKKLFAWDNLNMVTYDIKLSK
Experiment: Western blot, denatured hMyoc-OLF, IgG

binding result: binds
B1: Monoclonal Antibody OLF2 (antibody, V domains shown)
VH: DVKLVESGGGLVKPGGSLKLSCAASGFTFSSYAMSWVRQTPDKRLEWVATISSGGSYTYYPDSVKGRFTISRDNAKNTLYLQMSSLKSEDTAMYYCARLGGGIFAYWGQGTLVTVSA
VL: DVLMTQTPLSLPVSLGDQASISCRSSQSIVHSNGNTYLEWYLQKPGQSPKLLIYKVSNRFSGVPDRFSGSGSGTDFTLKISRVEAEDLGVYYCFQGSHVPLTFGAGTKLEIKR
notes: also called anti-OLF2
